Results: article PMC10626543, “Native lamin A/C proteomes and novel partners from heart and skeletal muscle in a mouse chronic inflammation model of human frailty” (Frontiers in Cell and Developmental Biology, 2023)

T1: recombinant lamin A tail (residues 385–646 of human mature lamin A) (human, UniProt P02545 385-646)
T1 construct: lamin A, human, residues 385-646 of mature lamin A: flexible linker 385-429, Ig-fold 430-544, disordered 545-646; also called lamin A tails; LamA; not shown: His tag, C-terminal, kept
T1 sequence (looked up): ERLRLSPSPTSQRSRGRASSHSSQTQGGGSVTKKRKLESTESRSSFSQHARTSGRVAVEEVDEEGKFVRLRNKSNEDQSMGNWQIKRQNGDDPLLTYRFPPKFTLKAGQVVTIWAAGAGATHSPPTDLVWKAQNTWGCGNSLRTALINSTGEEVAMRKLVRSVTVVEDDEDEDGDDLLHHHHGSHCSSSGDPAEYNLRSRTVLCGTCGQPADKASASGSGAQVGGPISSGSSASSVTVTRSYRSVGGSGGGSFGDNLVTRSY

B1: prelamin A peptide W14 (aa 450–469) (peptide)
peptide: KFVRLRNKSNEDQSMGNWQI
notes: prelamin A, human, residues 450-469 (Ig-fold); source: synthetic peptide, on cellulose array
B2: Perm1 peptide h16 (aa 529–548) (peptide)
peptide: QTATGAHGGPGAWEAVAVGP
notes: Perm1, human, residues 529-548; source: synthetic peptide, on cellulose array
B3: Perm1 peptide j2 (aa 737–756) (peptide)
peptide: FVAFATWAVRTSDPHTPDAW
notes: Perm1, human, residues 737-756; source: synthetic peptide, on cellulose array
B4: AldoA peptide r20 (aa 309–328) (peptide)
peptide: SALKAWGGKKENLKAAQEEY
notes: AldoA, human, residues 309-328; source: synthetic peptide, on cellulose array
B5: Tmem38A peptide j13 (aa 36–55) (peptide)
peptide: YLKYEPGAVELSRRHPIASW
notes: Tmem38a, human, residues 36-55; source: synthetic peptide, on cellulose array
B6: Perm1 peptide h5 (aa 441–460) (peptide)
peptide: SSGLVSTPVPRADAAGLAWP
notes: Perm1, human, residues 441-460; source: synthetic peptide, on cellulose array
B7: prelamin A peptide W19 (aa 485–504) (peptide)
peptide: PKFTLKAGQVVTIWAAGAGA
notes: prelamin A, human, residues 485-504 (Ig-fold); source: synthetic peptide, on cellulose array
B8: prelamin A peptide X1 (aa 499–518) (peptide)
peptide: AAGAGATHSPPTDLVWKAQN
notes: prelamin A, human, residues 499-518 (Ig-fold); source: synthetic peptide, on cellulose array
B9: Tmem38A peptide k16 (aa 197–216) (peptide)
peptide: FTLQQTRWLPVSKASLIFIF
notes: Tmem38a, human, residues 197-216; source: synthetic peptide, on cellulose array
B10: AldoA peptide r18 (aa 295–314) (peptide)
peptide: PWALTFSYGRALQASALKAW
notes: AldoA, human, residues 295-314; source: synthetic peptide, on cellulose array
B11: AldoA peptide r19 (aa 302–321) (peptide)
peptide: YGRALQASALKAWGGKKENL
notes: AldoA, human, residues 302-321; source: synthetic peptide, on cellulose array
B12: Tmem38A peptide k10 (aa 155–174) (peptide)
peptide: KGSGVALMSNFEQLLRGVWK
notes: Tmem38a, human, residues 155-174; source: synthetic peptide, on cellulose array
B13: Lmcd1 peptide v17 (aa 309–328) (peptide)
peptide: SGCDEIIFAEDYQRVEDLAW
notes: Lmcd1, human, residues 309-328 (second LIM domain); source: synthetic peptide, on cellulose array
B14: Perm1 peptide i4 (aa 593–612) (peptide)
peptide: EENEEAEAAAAGQDPAGVQW
notes: Perm1, human, residues 593-612; source: synthetic peptide, on cellulose array

target: T1, recombinant lamin A tail (residues …); experiment: peptide or protein array; synthetic 20-mer peptides (7-residue offset) on cellulose; probed 3 h at room temperature with 190 nM His-tagged lamin A tail in casein blocking solution (TBS-T, sucrose, pH 7.0); bound lamin detected with anti-lamin A/C clone 14 and AP-conjugated secondary antibody; two experiments, each with an antibodies-only control; details: both partners purified

Row | Binder | binding result
1 | B1 | binds
2 | B2 | binds
3 | B3 | binds
4 | B4 | binds
5 | B5 | binds
6 | B6 | binds
7 | B7 | binds
8 | B8 | binds
9 | B9 | binds
10 | B10 | binds
11 | B11 | binds
12 | B12 | binds
13 | B13 | binds
14 | B14 | binds
